Data from paper PMC3393671.
Substitutions are numbered along the chain they refer to. Names may count otherwise.

B1: GST-Irga6, Q9QZ85 E110R; R111E (protein)
chain: MGQLFSSPKSDENNDLPSSFTGYFKKFNTGRKIISQEILNLIELRMRKGNIQLTNSAISDALKEIDSSVLNVAVTGETGSGKSSFINTLRGIGNEEEGAAKTGVVEVTMREHPYKHPNIPNVVFWDLPGIGSTNFPPNTYLEKMKFYEYDFFIIISATRFKKNDIDIAKAISMMKKEFYFVRTKVDSDITNEADGKPQTFDKEKVLQDIRLNCVNTFRENGIAEPPIFLLSNKNVCHYDFPVLMDKLISDLPIYKRHNFMVSLPNITDSVIEKKRQFLKQRIWLEGFAADLVNIIPSLTFLLDSDLETLKKSMKFYRTVFGVDETSLQRLARDWEIEVDQVEAMIKSPAVFKPTDEETIQERLSRYIQEFCLANGYLLPKNSFLKEIFYLKYYFLDMVTEDAKTLLKEICL
B2: GST-Irga6, Q9QZ85 T108D (protein)
chain: B1 chain with T108D, R110E, E111R
B3: GST-Irga6, Q9QZ85 T88R (protein)
chain: B1 chain with T88R, R110E, E111R
B4: GST-Irga6, Q9QZ85 N220R (protein)
chain: B1 chain with R110E, E111R, N220R
B5: GST-Irga6, Q9QZ85 K162E (protein)
chain: B1 chain with R110E, E111R, K162E
B6: GST-Irga6, Q9QZ85 P197H (protein)
chain: B1 chain with R110E, E111R, P197H
B7: GST-Irga6, Q9QZ85 E106R (protein)
chain: B1 chain with E106R, R110E, E111R
B8: GST-Irga6, Q9QZ85 V205R (protein)
chain: B1 chain with R110E, E111R, V205R
B9: GST-Irga6, Q9QZ85 T102D (protein)
chain: B1 chain with T102D, R110E, E111R
B10: GST-Irga6, Q9QZ85 R159E (protein)
chain: B1 chain with R110E, E111R, R159E
B11: GST-Irga6, Q9QZ85 C213R (protein)
chain: B1 chain with R110E, E111R, C213R
B12: GST-Irga6, Q9QZ85 E142R (protein)
chain: B1 chain with R110E, E111R, E142R
B13: GST-Irga6, Q9QZ85 E77A (protein)
chain: B1 chain with E77A, R110E, E111R
B14: GST-Irga6, Q9QZ85 I209R (protein)
chain: B1 chain with R110E, E111R, I209R
B15: GST-Irga6, Q9QZ85 N191R (protein)
chain: B1 chain with R110E, E111R, N191R
B16: GST-Irga6, Q9QZ85 S132R (protein)
chain: B1 chain with R110E, E111R, S132R
B17: GST-Irga6, Q9QZ85 K196D (protein)
chain: B1 chain with R110E, E111R, K196D
B18: GST-Irga6, Q9QZ85 K161E (protein)
chain: B1 chain with R110E, E111R, K161E
B19: GST-Irga6, Q9QZ85 Q198E (protein)
chain: B1 chain with R110E, E111R, Q198E
B20: GST-Irga6, Q9QZ85 K169E (protein)
chain: B1 chain with R110E, E111R, K169E
B21: GST-Irga6, Q9QZ85 N212R (protein)
chain: B1 chain with R110E, E111R, N212R
B22: GST-Irga6, Q9QZ85 K145E (protein)
chain: B1 chain with R110E, E111R, K145E
B23: GST-Irga6, Q9QZ85 G103R (protein)
chain: B1 chain with G103R, R110E, E111R
B24: GST-Irga6, Q9QZ85 M173W (protein)
chain: B1 chain with R110E, E111R, M173W
B25: GST-Irga6, Q9QZ85 G195R (protein)
chain: B1 chain with R110E, E111R, G195R

Target: ROP5 of T. gondii strain RH-YFP (isoforms not told apart), F2YGR7
Assay: pull-down (quantitated Western blot)
Conditions: chain shown with the change; 25 µg protein/100 µl 1:1 bead suspension; RH-YFP strain T. gondii lysates; 3E2 antibody (anti-ROP5); GST signal subtracted; parent: est. 100; read off a plot

Chain of ROP5 of T. gondii strain RH-YFP (isoforms not told apart), F2YGR7 (F2YGR7 25-549): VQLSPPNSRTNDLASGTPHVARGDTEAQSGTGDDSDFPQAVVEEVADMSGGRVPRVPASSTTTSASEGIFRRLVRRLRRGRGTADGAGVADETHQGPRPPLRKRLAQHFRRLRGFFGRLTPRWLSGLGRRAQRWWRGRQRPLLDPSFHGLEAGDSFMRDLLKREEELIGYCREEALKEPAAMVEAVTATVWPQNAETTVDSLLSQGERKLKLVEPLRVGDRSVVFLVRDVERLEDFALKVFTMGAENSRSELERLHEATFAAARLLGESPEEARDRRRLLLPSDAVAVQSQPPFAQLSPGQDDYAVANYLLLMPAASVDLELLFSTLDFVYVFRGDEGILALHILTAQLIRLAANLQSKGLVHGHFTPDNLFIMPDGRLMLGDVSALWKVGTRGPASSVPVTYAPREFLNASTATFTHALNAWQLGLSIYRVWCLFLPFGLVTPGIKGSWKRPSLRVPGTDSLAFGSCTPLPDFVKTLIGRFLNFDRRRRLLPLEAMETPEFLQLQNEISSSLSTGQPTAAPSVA

Row | Binder | percent of parent (% of wild-type intensity)
1 | B1 | 17
2 | B2 | 77
3 | B3 | 51
4 | B4 | 20
5 | B5 | 3.5
6 | B6 | 2.8
7 | B7 | 110
8 | B8 | 10
9 | B9 | 110
10 | B10 | 5.5
11 | B11 | 3.3
12 | B12 | 73
13 | B13 | 34
14 | B14 | 5
15 | B15 | 30
16 | B16 | 45
17 | B17 | 1.8
18 | B18 | 1
19 | B19 | 32
20 | B20 | 22
21 | B21 | 2.7
22 | B22 | 100
23 | B23 | 43
24 | B24 | 25
25 | B25 | 6.5
